Experiments:
[1] = test system: Tie2 receptor downstream signaling in HUVEC cells; experiment: Western blot of AKT and ERK 42/44 phosphorylation (Tie2 downstream signaling) in HUVEC cells; format: cell-based; conditions: 60 nM anti-Ang2 antibody mixed with 40 nM Ang2, 10 minutes, FIG. 1
Procedure: Ang2 binds to the Tie2 receptor expressed on vascular endothelial cells and acts as a weak agonist or antagonist. Since the anti-Ang2 antibody developed in the present invention binds to Ang2 and forms a complex with Ang2-Tie2, thereby activating the Tie2 receptor and promoting downstream signaling, ERK and AKT phosphorylation experiments were performed to analyze the effect of anti-Ang2 antibodies on Tie2 downstream signaling using a cell-based assay. To compare the degree of activation of Tie2 downstream signaling, the same test was performed on the group treated with Ang2 (Sino Biological) and another Ang2 control antibody (Korean Patent Publication No. 10-2015-0136031).
Specifically, HUVEC (Lonza) cells (2×10^5) were cultured at 37° C. using EGM-2 (Lonza) medium, and when 80-90% confluency was observed, they were changed to 0.5% FBS Basal media (Lonza) for […]. Cultured at 37° C. for […]. 60 nM of anti-Ang2 antibody was mixed with 40 nM of Ang2 protein (Sino Biological) and left for 30 minutes. Then, the cultured cells were treated and incubated for another 10 minutes. For comparison, groups treated with 40 nM Ang2 and 40 nM Ang2+60 nM anti-Ang2 control antibody were prepared. […]

[2] = test system: Tie2 downstream signaling (AKT phosphorylation) in HUVEC cells; experiment: Phospho-Akt1 (Ser473) sandwich ELISA of Tie2 downstream signaling in HUVEC cells; format: cell-based
Procedure: To quantitatively analyze the effect of anti-Ang2 antibodies on Tie2 downstream signaling, the level of AKT phosphorylation was measured using ELISA.
HUVEC (Lonza) cells (2×10^5) were cultured at 37° C. using EGM-2 (Lonza) medium, and when 80-90% confluency was observed, they were changed to 0.5% FBS Basal media (Lonza) and cultured at 37° C. for 16 to 24 hours. 60 nM of anti-Ang2 antibody was mixed with 40 nM of Ang2 protein (Sino Biological) and left for 30 minutes. Then, the cultured cells were treated and incubated for another 10 minutes. For comparison, groups treated with 40 nM of Ang2, 40 nM of Ang2+60 nM of anti-Ang2 control antibody (h10D6-OPTI-67, U.S. Pat. No. 10,934,350) were prepared. The cells were washed with PBS, treated with the lysis buffer, centrifuged at 13,000 rpm for 15 minutes, and the supernatant was recovered to obtain a cell lysate.
For ELISA, 50 μL of PathScan®Phospho-Akt1 (Ser473) Sandwich ELISA Antibody Pair (Cell signaling) capture antibody diluted 1:100 was added to a 96 well ps half area plate (Greiner cio-one) and coated. Then, the plate was washed four times with PBST (Phosphate Buffer Saline containing 0.05% (v/v) Tween-20) and then blocked with PBST containing 1% (v/v) skim milk at 37° C. for […]. […] Afterwards, 50 μL of Stop solution was added to stop the reaction, and the OD450 value was measured on a plate reader (BioTek).

B1: 1D3: mouse anti-Ang2 monoclonal antibody; CDRs SEQ ID NO: 18-23, VH SEQ ID NO: 24, VL SEQ ID NO: 25 (antibody, V domains shown)
VH: DVQLQESGPGLVKPSQSLSLTCTVTGYSITSDYGWNWIRQFPGNKLEWMGYISYSGTTSYNPSLKSRISITRDTSKNQFFLQLNSVTTEDTATYYCARSEGTGFYAMDYWGQGTSVTVSSAKTTPPKLY
VL: SIVMTQTPKFLLVSAGDRVTIICKASQSVSNDVAWYQQKPGQSPKLLIYYASNRYTGVPDRFTGSGYGTDFTFTISTVQAEDLAVYFCQQDYSSPTFGGGTKLEIKRA
modifications: VH; VL
AKT and ERK activation signals (western blot) compared to the negative control group [1]: showed AKT and ERK activation signals
Order of AKT phosphorylation curves in FIG. 2, from the curve with the highest value ([2]; HUVEC cells together with Ang2, printed order 1D3, 2C8, 1A9, 1H10, control 67 clone): highest
Tie2 downstream signal (AKT phosphorylation ELISA) compared to previously known control antibodies ([2]; HUVEC cells, antibody together with 40 nM Ang2, OD450, FIG. 2): significantly stronger Tie2 downstream signal

Reference: patent publication US20250340625A1, “ANTIBODY SPECIFICALLY BINDING TO ANGIOPOIETIN-2, OR FRAGMENT THEREOF” (NEORTESBIO INC., priority 2021, published 2025)
